Source: patent publication US20150267232A1, “IN VIVO AND IN VITRO CARBENE INSERTION AND NITRENE TRANSFER REACTIONS CATALYZED BY HEME ENZYMES” (California Institute of Technology, priority 2012, published 2015)

How the values were obtained:
[1] = Small-scale anaerobic C—H amination with purified enzymes, azide 1; type: biochemical
Experimental: Activities are presented in TTN. […] Yields and enantioselectivies determined by HPLC analysis. * (S−R)/(S+R). nd=not determined.
Enzymes used as purified catalysts were expressed as previously described (Lewis, J. C. et al., Proc. Natl. Acad. Sci. U.S.A. 106, 16550-16555 (2009)), and were purified by anion-exchange chromatography (for holoenzymes) or Ni-NTA chromatography (for isolated heme domains). Concentrations of P450 or P411 enzymes were determined as previously reported (Omura, T. & Sato, R., J. Biol. Chem. 239, 2370-2378 (1964); Vatsis, K. P. et al., J. Inorg. Biochem. 91, 542-553 (2002)). Small-scale reactions (400 μL) were conducted in 2 mL crimp vials containing degassed buffer (0.1 M potassium phosphate pH 8.0), enzyme (0.1-0.5% catalyst loading) and oxygen depletion system (10× stock solution containing 14,000 U/mL catalase, 1,000 U/mL glucose oxidase dissolved in 0.1 M KPi pH 8.0). Enzyme (P450 or P411) solution and oxygen depletion mixture were added to the vial with a small stir bar before crimp-sealing. […] Reactions were stirred at room temperature for 24 h under positive argon pressure.
Small-scale reactions (400 μL) were conducted in 2 mL crimp vials (Agilent Technologies, San Diego, Calif.) containing buffer (0.1 M potassium phosphate pH 8.0), enzyme (0.1-0.5% catalyst loading) and oxygen depletion system (10× stock solution containing 14,000 U/mL catalase, 1,000 U/mL glucose oxidase dissolved in 0.1 M KPi pH 8.0). Enzyme (P450 or P411) solution and oxygen depletion mixture were added to the vial with a small stir bar before crimp-sealing. […] In the meantime, the headspace of the sealed 2 mL reaction vial with the P450 solution was made anaerobic by flushing argon over the protein solution (with no bubbling). The buffer/reductant/glucose solution (270 μL) was syringed into the reaction vial with continuous argon purge of the vial headspace. An arylsulfonyl azide solution in DMSO (10 μL, 80 mM) was added to the reaction vial via a glass syringe, and the reaction was left stirring for 24 h at room temperature under positive argon pressure. […] Reactions were quenched by adding 30 μL 3 M HCl under argon. To the vials were then added acetonitrile (430 uL) and internal standard (o-toluenesulfonamide 10 mM in 50% acetonitrile 50% water, 1 mM final concentration). This mixture was then transferred to a microcentrifuge tube, and centrifuged at 17,000×g for 10 minutes. A portion (20 μL) of the supernatant was then analyzed by HPLC. For LC-MS analysis, the quenched reaction mixture was extracted twice with ethyl acetate (2×350 μL), dried under a light argon stream and resuspended in 50% water-acetonitrile (100 μL). For chiral HPLC the reactions were extracted as above with ethyl acetate, dried and resuspended in DMSO (100 μL) and then C18 purified as described above. The C18 purified material was dried, and resuspended in acetonitrile, and then injected onto the chiral HPLC system for analysis. Sultam formation was quantified comparison of integrated peak areas of internal standard and sultam at 220 nm to a calibration curve made using synthetically produced sultam and internal standard.
Purified enzymes were screened for activity in small scale reactions (400 μL) under anaerobic conditions as described above. Reactions were carried out using 0.5% mol of enzyme (10 μM) with respect to the triethylsulfonyl azide substrate 1 (2 mM). Standard reaction conditions described above were employed. Diethyl benzosultam product 3 (FIG. 18) was analyzed and quantified by reversed-phase HPLC (see above).
Small-scale reactions (400 μL total volume) were set up and worked up. Control reactions were performed with both the holoenzyme (BM3 with covalently linked reductase domain) and the isolated heme domain. […] Reactions of the complete system with heme domain (CS heme) included 2 mM Na2S2O4 rather than NADPH unless otherwise indicated in the table. […]

[2] = Whole-cell C—H amination of azide 1; type: cell-based, E. coli BL21(DE3); settings: intact E. coli cells
Experimental: Reaction conditions were as follows: 2 mM azide 1, 25 mM glucose, E. coli BL21(DE3) cells in M9-N minimal medium (OD600=30), 2.5% DMSO, oxygen depletion system (100 U ml^−1 glucose oxidase, 1400 U ml^−1 catalase) reacted for 24 hours under anaerobic conditions at 298 K. Yields determined by HPLC quantification.
(§1) Whole cell reactions used E. coli BL21(DE3) cells containing P450 or P411 catalysts, which were expressed and prepared as described elsewhere (Coelho, P. S. et al., Highly efficient carbene transfer to olefins catalyzed in vivo. Submitted (2013)). Following expression, cells were resuspended to an OD600 of 30 in M9 salts lacking NH4Cl (M9-N), and then degassed by sparging with argon in a sealed 6 mL crimp vial for at least 0.5 h. Separately, glucose (250 mM dissolved in 1×M9-N, 40 μL, or multiples thereof) was degassed by sparging with argon for at least five minutes. The oxygen quenching mixture was added to sealed 2 mL crimp vials containing stir bars and the headspace of the vials was purged with argon for five minutes at which time glucose, and then cells were added by syringe. Substrate (80 mM arylsulfonyl azide, 10 uL in DMSO) was added via syringe, and the reactions were stirred at room temperature for 24 h under positive argon pressure.
as §1, with “E.” for “Whole cell reactions used E.”, “catalysts” for “catalysts, which”, “Coelho,” for “(Coelho,”, “μL” for “uL”, “pressure. Reactions were quenched in a manner identical to reactions containing purified enzymes as described above. For chiral HPLC, the reactions were extracted and purified in an identical manner as for reactions that employed purified enzymes. Lyophilized intact cells containing sucrose as a cryoprotectant were prepared as described elsewhere (Coelho, P. S. et al., Highly efficient carbene transfer to olefins catalyzed in vivo. Submitted (2013)). The resulting cell powder, containing expressed ABC-CIS (26 mg) were added along with a stir bar to a 2 mL crimp vial and then sealed. The headspace of the vial was degassed, oxygen quenching system (40 μL) was added via syringe, followed by degassed glucose (250 mM, 40 μL), M9-N (310 μL), and finally substrate (80 mM 1, 10 μL). Lyophilized cell reactions were stirred for 24 h at room temperature, then quenched and analyzed as described above. […]” for “pressure.”
The preparative reaction was scaled up proportionally from small-scale reactions. E. coli BL21 cells containing ABC-CIS (OD600 30, 90 mL in M9-N) were sparged with argon for 45 minutes in a round bottom flask (250 mL) containing a stir bar. Separately, glucose solution (250 mM, 11.6 mL) was sparged with argon in a conical flask. The oxygen quenching mixture (10×, 11.6 mL) was degassed in a conical flask that was placed under high vacuum until slight foaming occurred (1-2 s) and then back-filled with argon; this sequence was repeated several times. Sparged glucose solution was then added to the anaerobic cell suspension via syringe, followed by the oxygen quenching system. Finally, substrate 1 (80 mM, 2.9 mL DMSO) was added dropwise via syringe, and the reaction was stirred for 24 h at room temperature. To quench the reaction, dilute HCl (3 M, 8.7 mL) and acetonitrile (125 mL) were added. […]

[3] = Intramolecular carbene C—H insertion, substrate 4.1a; type: biochemical; settings: 10 mM 4.1a, 10 uM P450, 10 mM Na2S2O4; product 4.2a
Experimental: Yield of product 4.22b was established after calibration with phenethyl alcohol as an internal standard. The reaction is not catalyzed by the WT-BM3 heme domain or hemin at 5% catalyst loading.
A representative procedure for P450-catalyzed C—H insertion is as follows: A vial containing WT-AxD (20 μL, 200 μM) was sealed with a teflon cap and the headspace of this vial was purged with argon for 5 min. Concurrently, a solution of sodium dithionite (11 mM in phosphate buffer pH=8) was degassed for a minimum of 5 min and 360 μL of this solution was transferred to the vial containing protein. The gas lines were disconnected from the vials. The substrate 4.1a or 4.1b was then added as a solution (20 μL, 200 mM). Final concentrations of all components were: 10 uM enzyme, 10 mM substrate, and 10 mM dithionite. […]
The mixture was extracted with 1 mL cyclohexane and analyzed by GC-MS or GC. GC-MS was performed on a Shimadzu TQ8030 GC-MS with ion count detector and J&W HP-5 column (30 m×0.32 mm, 0.25 μm film) using the following method: 90° C. (hold 2 min), 90-190° C. (20° C./min), and 190-230 (40° C./min)

[4] = OD600=30, 2 mM azide 1, 24 hours, anaerobic

Molecule | TTN ([1]; 0.1 mol % catalyst loading (2 μM), 2 mM azide 1, 2 mM NADPH, benzosultam 3) | % ee ([1]; 0.1 mol % catalyst loading, (S−R)/(S+R), benzosultam 3) [%] | TTN (C—H amination product 3) ([1]; catalyst loading 0.5 mol %, NADPH, anaerobic) | Yield sulfonamide (%) [2, 4] [%] | Yield sultam (%) [2, 4] [%] | TTN ([2]; anaerobic, added glucose) | % ee ([2]; (S − R)/(S + R)) [%] | Yield % [3] [%]
ABC: P450BM3 variant: C400S (protein, listed as Bacillus megaterium, cytochrome P450NADPH-P-450 reductase precursor, cytochrome P450 (BM3), CYP102A1, P450BM3 variant: C400S) TIKEMPQPKTFGELKNLPLLNTDKPVQALMKIADELGEIFKFEAPGRVTRYLSSQRLIKEACDESRFDKNLSQALKFVRDFAGDGLFTSWTHEKNWKKAHNILLPSFSQQAMKGYHAMMVDIAVQLVQKWERLNADEHIEVPEDMTRLTLDTIGLCGFNYRFNSFYRDQPHPFITSMVRALDEAMNKLQRANPDDPAYDENKRQFQEDIKVMNDLVDKIIADRKASGEQSDDLLTHMLNGKDPETGEPLDDENIRYQIITFLIAGHETTSGLLSFALYFLVKNPHVLQKAAEEAARVLVDPVPSYKQVKQLKYVGMVLNEALRLWPTAPAFSLYAKEDTVLGGEYPLEKGDELMVLIPQLHRDKTIWGDDVEEFRPERFENPSAIPQHAFKPFGNGQRASIGQQFALHEATLVLGMMLKHFDFEDHTNYELDIKETLTLKPEGFVVKAKSKKIPLGGIPSPSTEQSAKKVRKKAENAHNTPLLVLYGSNMGTAEGTARDLADIAMSKGFAPQVATLDSHAGNLPREGAVLIVTASYNGHPPDNAKQFVDWLDQASADEVKGVRYSVFGCGDKNWATTYQKVPAFIDETLAAKGAENIADRGEADASDDFEGTYEEWREHMWSDVAAYFNLDIENSEDNKSTLSLQFVDSAADMPLAKMHGAFSTNVVASKELQQPGSARSTRHLEIELPKEASYQEGDHLGVIPRNYEGIVNRVTARFGLDASQQIRLEAEEEKLAHLPLAKTVSVEELLQYVELQDPVTRTQLRAMAAKTVCPPHKVELEALLEKQAYKEQVLAKRLTMLELLEKYPACEMKFSEFIALLPSIRPRYYSISSSPRVDEKQASITVSVVSGEAWSGYGEYKGIASNYLAELQEGDTITCFISTPQSEFTLPKDPETPLIMVGPGTGVAPFRGFVQARKQLKEQGQSLGEAHLYFGCRSPHEDYLYQEELENAQSEGIITLHTAFSRMPNQPKTYVQHVMEQDGKKLIELLDQGAHFYICGDGSQMAPAVEATLMKSYADVHQVSEADARLWLQQLEEKGRYAKDVWAG | 32 | 20 | 49 | 80 | 6.7 | 29 | 16 | 
WT-AxH: WT heme domain + C400H (protein, synthetic cytochrome P450-BM3 variant WT-AxH (heme), WT heme domain + C400H) TIKEMPQPKTFGELKNLPLLNTDKPVQALMKIADELGEIFKFEAPGRVTRYLSSQRLIKEACDESRFDKNLSQALKFVRDFAGDGLFTSWTHEKNWKKAHNILLPSFSQQAMKGYHAMMVDIAVQLVQKWERLNADEHIEVPEDMTRLTLDTIGLCGFNYRFNSFYRDQPHPFITSMVRALDEAMNKLQRANPDDPAYDENKRQFQEDIKVMNDLVDKIIADRKASGEQSDDLLTHMLNGKDPETGEPLDDENIRYQIITFLIAGHETTSGLLSFALYFLVKNPHVLQKAAEEAARVLVDPVPSYKQVKQLKYVGMVLNEALRLWPTAPAFSLYAKEDTVLGGEYPLEKGDELMVLIPQLHRDKTIWGDDVEEFRPERFENPSAIPQHAFKPFGNGQRAHIGQQFALHEATLVLGMMLKHFDFEDHTNYELDIKETLSLKPKGFVVKAKSKKIPLGGIPSPST |  |  |  |  |  |  |  | 0
WT-AxK: WT heme domain + C400K (protein, synthetic cytochrome P450-BM3 variant WT-AxK (heme), WT heme domain + C400K) TIKEMPQPKTFGELKNLPLLNTDKPVQALMKIADELGEIFKFEAPGRVTRYLSSQRLIKEACDESRFDKNLSQALKFVRDFAGDGLFTSWTHEKNWKKAHNILLPSFSQQAMKGYHAMMVDIAVQLVQKWERLNADEHIEVPEDMTRLTLDTIGLCGFNYRFNSFYRDQPHPFITSMVRALDEAMNKLQRANPDDPAYDENKRQFQEDIKVMNDLVDKIIADRKASGEQSDDLLTHMLNGKDPETGEPLDDENIRYQIITFLIAGHETTSGLLSFALYFLVKNPHVLQKAAEEAARVLVDPVPSYKQVKQLKYVGMVLNEALRLWPTAPAFSLYAKEDTVLGGEYPLEKGDELMVLIPQLHRDKTIWGDDVEEFRPERFENPSAIPQHAFKPFGNGQRAKIGQQFALHEATLVLGMMLKHFDFEDHTNYELDIKETLSLKPKGFVVKAKSKKIPLGGIPSPST |  |  |  |  |  |  |  | 0
